# Results reported in the DeepSol protein solubility set.
# Experiment: soluble on expression in E. coli; label from the status in PepcDB or PDB records
row,Sequence,soluble on expression in E. coli
1,MGSDKIHHHHHHMTTSTPSASPLALSPSRANDYQQCPLLYRFRAIDKLPEPKTVAQVKGTLVHAVLEEMHGWPRNERLFPAAVKRLKPHWSLMCSKDTELVSLVPEEDTYDFLVECRSLLRGYFEMENPQGFDALACEMYVNATLPNGVPIRGFIDRVDKAPTGEIRVVDYKTGKKPIPRFSQQAQFQMRFYALVYWRIYGRIPDQLRLMYLKVADSMFLTPSREELEYFERDIQELWEKIVTDGETGQFRPKTSKLCGWCSFQNLCPAFDGTPPAYPGWPGIADAPPCSTVDASKGLTG,not soluble
2,SMRPPIVIHSSGKKYGFSLRAIRVYMGDSDVYTVHHVVWSVEDGSPAQEAGLRAGDLITHINGESVLGLVHMDVVELLLKSGNKISLRTTALENTETSV,soluble
3,DWVIPPISSPENEKGPFPKNLVQIKSNKDKEGKVFYSITGQGADTPPVGVFIIERETGWLKVTEPLDRERIATYTLFSHAVSSNGNAVEDPMEILITVTDQNDNKPEFTQEVFKGSVMEGALPGTSVMEVTATDADDDVNTYNAAIAYTILSQDPELPDKNMFTINRNTGVISVVTTGLDRESFPTYTLVVQAADLQGEGLSTTATAVITVTD,soluble
4,ANQPDWADEAANGAHQDAWKSLKARVENVYYMVKATYKNDPVWGNDFTCVGVMANDVNEDEKSIQAEFLFMNNADTNMQFATEKVTAVKMYGYNRENAFRYETEDGQVFTDVIAYSDDNCDVIYVPGTDGNEEGYELWTTDYDNIPANCLNKFNEYAVGRETRDVFTSACLE,soluble
5,MHRHVVTKVLPYTPDQLFELVGDVDAYPKFVPWITGMRTWNGRVDGAVSTVDAEAQVGFSFLREKFATRKRRDKDARSIDVSLLYGPFKRLNNGWRFMPEGDATRVEFVIEFAFKSALLDAMLAANVDRAAGKLIACFEARAQQLHGALEHHHHHH,soluble
6,MEKPGHETDIAGSRRTHLKKSFKSTLRHLLTACSKQVVVNLHQTIEEEFDEQCHETQVGPILDTVEELVEEQSLDPLFSDKTDVMAIAYDLTTSKKNEIQKLTVLLQRAEEQNRQKEARISMLKKQTQDLSGTADRIEKLNAGVSGYFEGKDKLPPI,soluble
7,MMNDGKQQSTFLFHDYETFGTHPALDRPAQFAAIRTDSEFNVIGEPEVFYCKPADDYLPQPGAVLITGITPQEARAKGENEAAFAARIHSLFTVPKTCILGYNNVRFDDEVTRNIFYRNFYDPYAWSWQHDNSRWDLLDVMRACYALRPEGINWPENDDGLPSFRLEHLTKANGIEHSNAHDAMADVYATIAMAKLVKTRQPRLFDYLFTHRNKHKLMALIDVPQMKPLVHVSGMFGAWRGNTSWVAPLAWHPENRNAVIMVDLAGDISPLLELDSDTLRERLYTAKTDLGDNAAVPVKLVHINKCPVLAQANTLRPEDADRLGINRQHCLDNLKILRENPQVREKVVAIFAEAEPFTPSDNVDAQLYNGFFSDADRAAMKIVLETEPRNLPALDITFVDKRIEKLLFNYRARNFPGTLDYAEQQRWLEHRRQVFTPEFLQGYADELQMLVQQYADDKEKVALLKALWQYADEIVEHHHHHH,soluble
8,MAHHHHHHMGTMGASNDVTDVDDENLLSEELQSSSTGSWSSMGDLQTTESAESDAPSEESDPDERVRRATASFLQWKNKEYVPLSLDEKRAIKEYRKMVAQEEGSYTSTRAQRQRDRAPKLFISREDDWVDLGSPAEGDGLARRRSRKIRFVAAVIASKEVDVHNDGLVVLTDAGEEVPELPRSASILRMSCVKNLTEEAPVFVDDLNSCMMEDEGRSCESAVRWEFPR,soluble
9,MAHHHHHHMSDAPHRQSSTPASSFLPPEPLCVADILSELLPFLLAAPQPRDGCPPSSSAQEPAESPVLLIPPTVASEHRVQVSIRGRRYETALEVALTYSLFFFVFFHWPFSEEDESSDAAGCASDVAHVKRAPRSVGDAVMAAASARDLPKEAHLLRHYTRVVEPVLRVFLDHWAAPLDAAAAAQGEGESAARAETAEAGDAARLPLLPPLPHPVRIAYDASTRVWKFEFAARLTAGAAAEARSGRQCDDSSAAVSLAAADGCAAVATDKLNNSPFLLLQSEYMGLLLVFLRRCAKVRAERRAAGEGAAACALAPYPSLPIRWEEMNYDEQLSVVQLIRRFGVVSLARTYTRPTAPETTSLYIGEEAAAATARVKVEGDACSLRARASESMGKQQQKIQQAASVAVDTAEVVKKERCINEDDFDGLVLSAKGCARCGMAEHSTEECHF,soluble
10,MATKNEELPIIDLAATEGYIVDDTDEDDPVLLAPDGTPIDTWRENYPYEERMTRDEYEKTKRALQIELLKWQNWTKDTGQRHIILFEGRDAAGKGGTIKRFNEHLNPRGARTVALEKPSPRESTSWYFQRYIEHFPCAGEIVFFDRSWYNRSGVERVMGFCTESQHAEFLREVPMLENMILGSGISLTKFWFSVTQKEQRTRFAIRQVDPVRQWKLSPMDLASLDRWDDYTRAKEEQFRYTDTDEAPWITIRSNDKKRARINAMRYILSKFEYSNKDHDLVGEPDPLIVMRGRDRIGD,not soluble
11,QSNAIWGLDRIDQRNLPLDRNYNANFDGFGVTAYVIDTGVNNNHEEFGGRSVSGYDFVDNDADSSDCNGHGTHVAGTIGGSQYGVAKNVNIVGVRVLSCSGSGTTSGVISGVDWVAQNASGPSVANMSLGGGQSTALDSAVQGAIQSGVSFMLAAGNSNADACNTSPARVPSGVTVGSTTSSDSRSSFSNWGSCVDLFAPGSQIKSAWYDGGYKTISGTSMATPHVAGVAALYLQENNGLTPLQLTGLLNSRASENKVSDTRGTTNKLLYSLADSGCEPDCGGP,soluble
12,MDHDKLEANLLDHALTKYLKSTKQLDEATVPKHVNNVRGFILRIIYRHGSCTIKDILKEVTLSPSATTTALNHLEQEGFIERSRNNNDRRTVWITLSESGRGAAEQMIENRQQLIDGMFERLTAEEKKTFLAIIAKLAQ,not soluble
13,MKISLSTSLFSIEQKVEYFNLNYQSLSDFSVVAKLNYTFTWYGNDFSIGFAPKKGEKLYFDLFFTFKASPNHPFAAENFKPDSEAIDFYVSFSWRLEGKDEVSKKLFELSVFGRARAFQIDDYKINLFSYLVYVIR,soluble
14,MRYAAYYAPRPDSALWRAGCEWLGYDAAGGAQLPRPDVEGVEAGELAGLTREAARYGWHATLKAPFALRPGVGEDALLLQTSMLARRFQPFALSLQVGWLGDFLALRPAGPCAELDELAAACSVSLEGLADRHAPLRPREGLDPRQQALYRRWGYPYVFEQFRFHLTLSDRLDRESAAAVLIERGARRHFAGLLQQVAVAGVTLFVEREQGGPFRYLAYCGFNGEVARHGR,not soluble
15,MKETNAGSVYSPELIEFATVGVEFCALVEQAAAHRTTDFIDKASKVLPLLYLKTALLPPYEYSEEVDFVEEYITEESYEQVRSAVESLLGSYDSFLDARHSDMQYSDTPVGASIGECLADVYQQVGNLLGVVRQSNDRAIPQAIGRCLTYFGEYWGNRLLAAAGALHELRYSEVYRTWEEEERAED,soluble
16,MGSDKIHHHHHHMSVLCLDLGGTKLMLAQVEGKTLLDTWRYPVPADGNFEQLFDFLVTCIHSHLTPETYGISIGIPGMVDMQSGTLLEVLNIPALTATQLAQQLKNTFEMDVVVNNDANLFALGEAVLNSNQDMLGITLGTGVGAGVIFNGQLYSGKHCAAGEIGSLSYRDGIIEHYCSGQYFTTHHHMSGEHLYQKACEGDSQALQAFAHFGEHLAHMIAQTLLVYDPKDIVLGGSVSQSFPFFIEALKQKLQSLVYGPQLADLTISASQHHNAALIGAAQWFLQQQKSSDFN,not soluble
17,MGSDKIHHHHHHACVATAFSQTIEKENKIDVQKKNSSAEVSGRQLPEAKNIEPKLPDIEAKKLATDDKSMQTYGLTPSSPASGLSPYSYDFPALLESNPTLTDFYNFRQHSMNGQLSFIGSAEQKTYLGLGQYVAVNAGIRWIPSQRFFVEAGGDLSRQFYLALPIARQDIAGIYTRMRYSLVRNVRLNVWGQYFMGGNTPPPAYNPLFPHTGVGASISVDVKKNTEVSVGAEYQYDKKSREWKMETSGRVSIGF,not soluble
18,MAHHHHHHMLWVDKYRPKSLVEVELYPELTEVLKRLAESQDLPHLLLYGPSGTGKKTRAMAVLHHVYGPSVYSLRLEHRSVQVTDSKVVDIATLSSPHHIDINPSDAGNYDRVIVMQMIREIAQTVSLQSSTSNGVKYKVVLLNEVDKMGRAAQHALRRTMEKYMSTCRLVLICNSTSRLIAPLRSRCLAVRVPSHSKENLTKVIRGVCERENRPLPSPEFMATVTQRSEGNLRRALLMVEAAAMTKVDFSGNGADIPQPDWRVFLDEIANDILSEQTPKKLHEIRGKFYNLLGQCVSGELILRLVLEKLMSAVDPALRRPLVALAAQYDHNMKLGTKTIVHLEAFAAGVMQLLKQK,not soluble
19,MGSDKIHHHHHHMNGFSQLEGLRGHPSVVRVIGHRGARGVMPENTLEGFAFTLAAGVRALEFDVVMTADGVPVVTHNHHLANAMTRDGQGHWLTGAERQVAEMTYAEIRALDVGGLDGRTVYGRRFPDQAFLTGIHVPRLGELLDLCAGYGDQAPYLLLELKSDPALMHDHAARAEMVAAVLADVRRYRMEPRTVMHSFDWALLGECRRQAPDLPTSYLSQLPENADDPGEDSAKPVGPDYDRMTESLPQAVASAGGQLWCPYFLDVTPELVAEAHDLGLIVLTWTVNEPEDIRRMATTGVDGIVTDYPGRTQRILIDMGLSWT,not soluble
20,MMIVIKTAIPDVLILEPKVFGDERGFFFESYNQQTFEELIGRKVTFVQDNHSKSKKNVLRGLHFQRGENAQGKLVRCAVGEVFDVAVDIRKESPTFGQWVGVNLSAENKRQLWIPEGFAHGFVTLSEYAEFLYKATNYYSPSSEGSILWNDEAIGIEWPFSQLPELSAKDAAAPLLDQALLTE,soluble
21,MSAPSRTVLRELTATKYVANYTDEYQLETARAGCSALPPQPNINHDAIIEGHGEDVELVEDKNYRSLHRIDETPKLVDKKPSKAIIRDEAVKVLRDIQTMPIENLRLKRYDFFSQRWFNTTRESEKALVEHVLLHPNQRPHYFAAQCRMLSAEDISSLILTSLLAEPKETGQNVVRFAIQAKTAMPFQQLFAILEKLEMEIEGFQMTDSFVVATLIRSQSKSTTTRRLRTTNCREYGNLEPGLDSQGRLMASTASITCSIRGKRHVETRIVYNNNSSARDPFRRYRYIELEQTVKCMNRRVQIVEEPVEFHEFEVENDMVSLRNGMVLVDDLISFLETFELDEE,not soluble
22,MRCVVYSIAKSSPLELVKIYQKQCRQFDCELELVDLFPKNTANAQKVSKKLAQKSYSLAFEPYLNPKAKNIALHPKAQRGDSFAFSKMLENHLNINFFIAGAYGFEENFLKDCQAWSLSEMTFSHEVAKIVLCEQIYRALSIIFKHPYHKLEHHHHHH,not soluble
23,MRFFLSPPHMGGNELKYIEEVFKSNYIAPLGEFVNRFEQSVKDYSKSENALALNSATAALHLALRVAGVKQDDIVLASSFTFIASVAPICYLKAKPVFIDCDETYNIDVDLLKLAIKECEKKPKALILTHLYGNAAKMDEIVEICKENDIVLIEDAAEALGSFYKNKALGTFGEFGVYSYNGNKIITTSGGGMLIGKNKEKIEKARFYSTQARENCLHYEHLDYGYNYRLSNVLGAIGVAQMEVLEQRVLKKREIYEWYKEFLGEYFSFLDELENSRSNRWLSTALINFDKNELNACQKDINISQKNITLHPKISKLIEDLKNKQIETRPLWKAMHTQEVFKGAKAYLNGNSELFFQKGICLPSGTAMSKDDVYEISKLILKSIKAGSHHHHHH,soluble
24,HDTRKIIAKQLGPHTYLVSGRMEIDDVNERFGLSLPESDDYLTVAGFILNSHQNIPQANEVVEIAPYTFTILRSSSTKIELVKMSIDD,not soluble
25,MSENSENAPEKVEFTPIGYVENDYFKPEYKEEVYEKVSKIVLREDLVDGLYRVEELEKLYILFYFSKSEGYKLIHRRRYDGEMSGVFASRSPYRPNGIGLTLVELLKVEGNVLYVKGLDAINGTPVLDIKPYMKDLEEKEKENTKLEHHHHHH,soluble
